Assay [1] has as its target human PD-1 on cells (HEK-PD-1 reporter cells; activated PBMC) (human, UniProt Q15116 25-288). Kind of assay: cell-based or functional assay.
The target in assay [2] is human IL-12 receptor complex (IL-12Rβ1 and IL-12Rβ2) (human, UniProt P42701 24-662; Q99665 24-862). Kind of assay: cell-based or functional assay.
The target in assay [3] is T1, human IL-2 receptor (IL-2Rα, IL-2Rβ, IL-2Rγ) (human, UniProt P01589 22-272; P14784 27-551; P31785 23-369).
T1 sequence (looked up) 1: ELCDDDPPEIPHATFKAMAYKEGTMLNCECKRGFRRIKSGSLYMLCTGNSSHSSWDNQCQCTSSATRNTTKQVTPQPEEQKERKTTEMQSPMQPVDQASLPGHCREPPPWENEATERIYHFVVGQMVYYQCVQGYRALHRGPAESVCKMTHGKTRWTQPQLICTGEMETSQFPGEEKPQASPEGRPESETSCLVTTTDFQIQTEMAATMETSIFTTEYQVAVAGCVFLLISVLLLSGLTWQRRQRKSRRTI
T1 sequence (looked up) 2: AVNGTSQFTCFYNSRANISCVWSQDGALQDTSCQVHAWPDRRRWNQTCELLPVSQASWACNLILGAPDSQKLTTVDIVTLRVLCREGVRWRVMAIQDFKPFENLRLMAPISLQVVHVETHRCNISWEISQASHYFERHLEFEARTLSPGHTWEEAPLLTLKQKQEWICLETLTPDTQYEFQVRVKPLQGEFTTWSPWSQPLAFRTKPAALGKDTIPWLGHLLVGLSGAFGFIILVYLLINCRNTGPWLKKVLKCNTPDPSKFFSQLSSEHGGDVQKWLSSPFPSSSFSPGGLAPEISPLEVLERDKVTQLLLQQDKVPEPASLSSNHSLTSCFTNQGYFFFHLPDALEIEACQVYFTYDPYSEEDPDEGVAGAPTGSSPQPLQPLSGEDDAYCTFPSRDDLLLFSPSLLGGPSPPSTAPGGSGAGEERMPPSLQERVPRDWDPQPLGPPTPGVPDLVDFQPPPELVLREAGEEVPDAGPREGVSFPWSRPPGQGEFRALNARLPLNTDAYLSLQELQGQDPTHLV
T1 sequence (looked up) 3: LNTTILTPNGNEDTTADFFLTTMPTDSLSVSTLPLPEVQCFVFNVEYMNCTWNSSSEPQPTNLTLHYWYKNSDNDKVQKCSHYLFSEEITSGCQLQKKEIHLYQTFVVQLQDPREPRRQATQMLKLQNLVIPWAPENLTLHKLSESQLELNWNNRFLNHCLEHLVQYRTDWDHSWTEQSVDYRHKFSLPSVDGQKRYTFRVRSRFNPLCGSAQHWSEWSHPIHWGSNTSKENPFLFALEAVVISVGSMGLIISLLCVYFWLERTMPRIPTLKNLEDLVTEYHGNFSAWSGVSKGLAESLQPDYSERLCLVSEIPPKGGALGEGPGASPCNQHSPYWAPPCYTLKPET
Kind of assay: cell-based or functional assay.

For a further assay, the target named is T2, human PD-1 (human, UniProt Q15116 25-167, limits assumed).
T2 construct: also called hPD-1
Kind of assay: PD-L1-Fc format, calibrated on PD-L1(wt)-Fc, method not stated.

The target in another assay is T3, mouse PD-1 (mouse, UniProt Q02242 25-167, limits assumed).
T3 construct: also called mPD-1
T3 sequence (looked up): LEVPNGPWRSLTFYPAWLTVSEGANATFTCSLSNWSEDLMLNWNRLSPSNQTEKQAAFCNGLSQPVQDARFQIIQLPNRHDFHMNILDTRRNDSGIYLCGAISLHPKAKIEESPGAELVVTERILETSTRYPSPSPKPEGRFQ
The description is as above.

Four molecules from patent US20240392004A1 (IMMUNOWAKE, published 2024) can be followed below.

T2 sequence (Q15116 25-167 limits assumed): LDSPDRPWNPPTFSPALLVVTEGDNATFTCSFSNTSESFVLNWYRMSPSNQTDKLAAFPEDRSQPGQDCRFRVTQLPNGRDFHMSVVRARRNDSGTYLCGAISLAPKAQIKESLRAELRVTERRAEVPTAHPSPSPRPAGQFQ
human PD-1 on cells (HEK-PD-1 reporter cells; activated PBMC), sequence (Q15116 25-288): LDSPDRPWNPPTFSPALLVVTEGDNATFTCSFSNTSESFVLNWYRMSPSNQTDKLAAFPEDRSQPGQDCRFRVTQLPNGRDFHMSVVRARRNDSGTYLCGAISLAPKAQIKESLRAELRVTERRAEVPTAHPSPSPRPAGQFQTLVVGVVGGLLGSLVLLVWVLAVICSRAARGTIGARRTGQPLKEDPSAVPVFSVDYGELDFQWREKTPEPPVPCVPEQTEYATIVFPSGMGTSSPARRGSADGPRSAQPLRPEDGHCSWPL
human IL-12 receptor complex (IL-12Rβ1 and IL-12Rβ2), sequence (Q99665 24-862, chain 2 of 2, other chains not shown): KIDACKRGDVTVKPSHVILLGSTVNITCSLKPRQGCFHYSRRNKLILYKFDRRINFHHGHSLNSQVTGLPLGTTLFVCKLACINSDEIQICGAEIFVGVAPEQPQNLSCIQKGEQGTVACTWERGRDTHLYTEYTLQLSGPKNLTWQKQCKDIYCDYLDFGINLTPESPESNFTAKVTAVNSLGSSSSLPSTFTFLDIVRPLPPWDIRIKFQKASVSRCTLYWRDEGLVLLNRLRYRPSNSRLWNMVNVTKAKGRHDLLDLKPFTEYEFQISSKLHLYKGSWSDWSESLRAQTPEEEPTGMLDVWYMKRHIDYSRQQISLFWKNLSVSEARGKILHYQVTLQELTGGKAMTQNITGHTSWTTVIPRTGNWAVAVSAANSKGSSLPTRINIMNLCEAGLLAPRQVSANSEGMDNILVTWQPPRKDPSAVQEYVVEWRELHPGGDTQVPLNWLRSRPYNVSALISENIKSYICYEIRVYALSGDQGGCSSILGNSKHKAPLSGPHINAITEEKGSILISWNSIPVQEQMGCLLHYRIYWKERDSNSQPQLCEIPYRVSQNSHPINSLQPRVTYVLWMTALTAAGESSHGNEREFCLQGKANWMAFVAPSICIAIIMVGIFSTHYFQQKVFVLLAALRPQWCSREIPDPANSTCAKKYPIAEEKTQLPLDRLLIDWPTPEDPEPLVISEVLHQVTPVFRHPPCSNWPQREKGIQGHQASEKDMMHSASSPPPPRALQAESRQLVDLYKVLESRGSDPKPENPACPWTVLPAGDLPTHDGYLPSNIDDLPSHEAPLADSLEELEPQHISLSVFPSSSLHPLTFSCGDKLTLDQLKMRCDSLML

B1: IL-2(R38D/K43E/E61R/Q126T)/PD-L1(mut2)-Fc/IL-12(E59A/F60A) (Fc fusion)
chain 1: FTVTVPKDLYVVEYGSNMTIECKFPVEKQLDLAALQVYWMMEDKNIIQFVHGEEDLKVQHSSYRQRARLLKDQLSLGNAALQITDVKLQDAGVYTCLIAYKGADYKRITVKVNAPYNKINQRILVVDPVTSEHELTCQAEGYPKAEVIWTSSDHQVLSGKTTTTNSKREEKLFNVTSTLRINTTTNEIFYCTFRRLDPEENHTAELVIPELPLAHPPNERGGGGSGGGDKTHTCPPCPAPEDEGGPSVFLFPPKPKDTLMISRTPEVTCVVVDVSHEDPEVKFNWYVDGVEVHNAKTKPREEQYNSTYRVVSVLTVLHQDWLNGKEYKCKVSNKALPAPIEKTISKAKGQPREPQVYVYPPSREEMTKNQVSLTCLVKGFYPSDIAVEWESNGQPENNYKTTPPVLDEDGSFALVSKLTVDKSRWQQGNVFSCSVMHEALHNHYTQKSLSLSPGKGGGGSGGGIWELKKDVYVVELDWYPDAPGEMVVLTCDTPEEDGITWTLDQSSEVLGSGKTLTIQVKAAGDAGQYTCHKGGEVLSHSLLLLHKKEDGIWSTDILKDQKEPKNKTFLRCEAKNYSGRFTCWWLTTISTDLTFSVKSSRGSSDPQGVTCGAATLSAERVRGDNKEYEYSVECQEDSACPAAEESLPIEVMVDAVHKLKYENYTSSFFIRDIIKPDPPKNLQLKPLKNSRQVEVSWEYPDTWSTPHSYFSLTFCVQVQGKSKREKKDRVFTDKTSATVICRKNASISVRAQDRYYSSSWSEWASVPCSGGGGSGGGSGGGGSRNLPVATPDPGMFPCLHHSQNLLRAVSNMLQKARQTLEFYPCTSEEIDHEDITKDKTSTVEACLPLELTKNESCLNSRETSFITNGSCLASRKTSFMMALCLSSIYEDLKMYQVEFKTMNAKLLMDPKRQIFLDQNMLAVIDELMQALNFNSETVPQKSSLEEPDFYKTKIKLCILLHAFRIRAVTIDRVMSYLNAS
chain 2: FTVTVPKDLYVVEYGSNMTIECKFPVEKQLDLAALQVYWMMEDKNIIQFVHGEEDLKVQHSSYRQRARLLKDQLSLGNAALQITDVKLQDAGVYTCLIAYKGADYKRITVKVNAPYNKINQRILVVDPVTSEHELTCQAEGYPKAEVIWTSSDHQVLSGKTTTTNSKREEKLFNVTSTLRINTTTNEIFYCTFRRLDPEENHTAELVIPELPLAHPPNERGGGSGAPTSSSTKKTQLQLEHLLLDLQMILNGINNYKNPKLTDMLTFEFYMPKKATELKHLQCLERELKPLEEVLNLAQSKNFHLRPRDLISNINVIVLELKGSETTFMCEYADETATIVEFLNRWITFCTSIISTLTGGGGSGGGDKTHTCPPCPAPEKKGGPSVFLFPPKPKDTLMISRTPEVTCVVVDVSHEDPEVKFNWYVDGVEVHNAKTKPREEQYNSTYRVVSVLTVLHQDWLNGKEYKCKVSNKALPAPIEKTISKAKGQPREPQVYVLPPSREEMTKNQVSLLCLVKGFYPSDIAVEWESNGQPENRYMTWPPVLDSDGSFFLYSKLTVDKSRWQQGNVFSCSVMHEALHNHYTQKSLSLSPGK
For the molecule B1, in assay [1], the “IL-2 signal transduction, HEK-IL-2-PD-1” value came out at 31% and the “IL-12 signal transduction, HEK-IL-12-PD-1” value turned out to be 30%. In assay [2], the “IL-12 signal transduction, HEK-IL-12” value is 1%. Moreover, the “IL-2 signal transduction, HEK-IL-2” value in assay [3] worked out at 3%.

B2: PD-L1(mut3)-Fc, I54Q/R113T/M115L/S117A/G119K (Fc fusion)
chain 1: FTVTVPKDLYVVEYGSNMTIECKFPVEKQLDLAALQVYWEMEDKNIIQFVHGEEDLKVQHSSYRQRARLLKDQLSLGNAALQITDVKLQDAGVYTCLIAYKGADYKRITVKVNAPYNKINQRILVVDPVTSEHELTCQAEGYPKAEVIWTSSDHQVLSGKTTTTNSKREEKLFNVTSTLRINTTTNEIFYCTFRRLDPEENHTAELVIPELPLAHPPNERDKTHTCPPCPAPEDEGGPSVFLFPPKPKDTLMISRTPEVTCVVVDVSHEDPEVKFNWYVDGVEVHNAKTKPREEQYNSTYRVVSVLTVLHQDWLNGKEYKCKVSNKALPAPIEKTISKAKGQPREPQVYVYPPSREEMTKNQVSLTCLVKGFYPSDIAVEWESNGQPENNYKTTPPVLDEDGSFALVSKLTVDKSRWQQGNVFSCSVMHEALHNHYTQKSLSLSPGK
chain 2: FTVTVPKDLYVVEYGSNMTIECKFPVEKQLDLAALQVYWEMEDKNIIQFVHGEEDLKVQHSSYRQRARLLKDQLSLGNAALQITDVKLQDAGVYTCLIAYKGADYKRITVKVNAPYNKINQRILVVDPVTSEHELTCQAEGYPKAEVIWTSSDHQVLSGKTTTTNSKREEKLFNVTSTLRINTTTNEIFYCTFRRLDPEENHTAELVIPELPLAHPPNERDKTHTCPPCPAPEKKGGPSVFLFPPKPKDTLMISRTPEVTCVVVDVSHEDPEVKFNWYVDGVEVHNAKTKPREEQYNSTYRVVSVLTVLHQDWLNGKEYKCKVSNKALPAPIEKTISKAKGQPREPQVYVLPPSREEMTKNQVSLLCLVKGFYPSDIAVEWESNGQPENRYMTWPPVLDSDGSFFLYSKLTVDKSRWQQGNVFSCSVMHEALHNHYTQKSLSLSPGK
What is called Kd is the concentration at which binding is half-saturated. On to B2, for which the Kd in the assay with human PD-1 stood at 910 nM; in the assay with mouse PD-1, 820 nM.

B3: PD-L1(mut4)-Fc, I54Q/E58M/M115L/S117A/G119K (Fc fusion)
chain 1: FTVTVPKDLYVVEYGSNMTIECKFPVEKQLDLAALQVYWMMEDKNIIQFVHGEEDLKVQHSSYRQRARLLKDQLSLGNAALQITDVKLQDAGVYRCLIAYKGADYKRITVKVNAPYNKINQRILVVDPVTSEHELTCQAEGYPKAEVIWTSSDHQVLSGKTTTTNSKREEKLFNVTSTLRINTTTNEIFYCTFRRLDPEENHTAELVIPELPLAHPPNERDKTHTCPPCPAPEDEGGPSVFLFPPKPKDTLMISRTPEVTCVVVDVSHEDPEVKFNWYVDGVEVHNAKTKPREEQYNSTYRVVSVLTVLHQDWLNGKEYKCKVSNKALPAPIEKTISKAKGQPREPQVYVYPPSREEMTKNQVSLTCLVKGFYPSDIAVEWESNGQPENNYKTTPPVLDEDGSFALVSKLTVDKSRWQQGNVFSCSVMHEALHNHYTQKSLSLSPGK
chain 2: FTVTVPKDLYVVEYGSNMTIECKFPVEKQLDLAALQVYWMMEDKNIIQFVHGEEDLKVQHSSYRQRARLLKDQLSLGNAALQITDVKLQDAGVYRCLIAYKGADYKRITVKVNAPYNKINQRILVVDPVTSEHELTCQAEGYPKAEVIWTSSDHQVLSGKTTTTNSKREEKLFNVTSTLRINTTTNEIFYCTFRRLDPEENHTAELVIPELPLAHPPNERDKTHTCPPCPAPEKKGGPSVFLFPPKPKDTLMISRTPEVTCVVVDVSHEDPEVKFNWYVDGVEVHNAKTKPREEQYNSTYRVVSVLTVLHQDWLNGKEYKCKVSNKALPAPIEKTISKAKGQPREPQVYVLPPSREEMTKNQVSLLCLVKGFYPSDIAVEWESNGQPENRYMTWPPVLDSDGSFFLYSKLTVDKSRWQQGNVFSCSVMHEALHNHYTQKSLSLSPGK
B3: the Kd in the assay with human PD-1 stood at 1090 nM; in the assay with mouse PD-1, 980 nM.

B4: PD-L1(mut7)-Fc, I54Q/E58M/R113T/M115L/S117A (Fc fusion)
chain 1: FTVTVPKDLYVVEYGSNMTIECKFPVEKQLDLAALQVYWMMEDKNIIQFVHGEEDLKVQHSSYRQRARLLKDQLSLGNAALQITDVKLQDAGVYTCLIAYGGADYKRITVKVNAPYNKINQRILVVDPVTSEHELTCQAEGYPKAEVIWTSSDHQVLSGKTTTTNSKREEKLFNVTSTLRINTTTNEIFYCTFRRLDPEENHTAELVIPELPLAHPPNERGGGGSGGGDKTHTCPPCPAPEDEGGPSVFLFPPKPKDTLMISRTPEVTCVVVDVSHEDPEVKFNWYVDGVEVHNAKTKPREEQYNSTYRVVSVLTVLHQDWLNGKEYKCKVSNKALPAPIEKTISKAKGQPREPQVYVYPPSREEMTKNQVSLTCLVKGFYPSDIAVEWESNGQPENNYKTTPPVLDEDGSFALVSKLTVDKSRWQQGNVFSCSVMHEALHNHYTQKSLSLSPGK
chain 2: FTVTVPKDLYVVEYGSNMTIECKFPVEKQLDLAALQVYWMMEDKNIIQFVHGEEDLKVQHSSYRQRARLLKDQLSLGNAALQITDVKLQDAGVYTCLIAYGGADYKRITVKVNAPYNKINQRILVVDPVTSEHELTCQAEGYPKAEVIWTSSDHQVLSGKTTTTNSKREEKLFNVTSTLRINTTTNEIFYCTFRRLDPEENHTAELVIPELPLAHPPNERGGGGSGGGDKTHTCPPCPAPEKKGGPSVFLFPPKPKDTLMISRTPEVTCVVVDVSHEDPEVKFNWYVDGVEVHNAKTKPREEQYNSTYRVVSVLTVLHQDWLNGKEYKCKVSNKALPAPIEKTISKAKGQPREPQVYVLPPSREEMTKNQVSLLCLVKGFYPSDIAVEWESNGQPENRYMTWPPVLDSDGSFFLYSKLTVDKSRWQQGNVFSCSVMHEALHNHYTQKSLSLSPGK
Regarding B4, the figures for the Kd with human PD-1 and with mouse PD-1 were 98 nM and 110 nM, respectively.
